Data as given in patent US20110052597A1.

Assays:
[1] = molecular target: N-terminal FLAG-tagged fusion protein including most of the extracellular region of human IL-13Rα1 (human) (UniProt P78552); assay: BIACORE, receptor ECR immobilized on CM5 chip, mAb in solution
[2] = molecular target: T1, cynomolgus IL-13Rα1.ECR, N-terminal FLAG-tagged fusion protein (cynomolgus macaque); assay: as above
T1 sequence: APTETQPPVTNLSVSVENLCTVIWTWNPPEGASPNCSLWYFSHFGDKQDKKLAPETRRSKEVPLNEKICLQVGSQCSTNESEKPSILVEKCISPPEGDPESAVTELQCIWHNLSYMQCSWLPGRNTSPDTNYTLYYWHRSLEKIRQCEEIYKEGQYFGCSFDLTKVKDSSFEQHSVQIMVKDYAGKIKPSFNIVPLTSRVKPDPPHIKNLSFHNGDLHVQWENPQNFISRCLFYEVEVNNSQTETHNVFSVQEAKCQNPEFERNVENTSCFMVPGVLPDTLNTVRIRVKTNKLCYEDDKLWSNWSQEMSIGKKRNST

Kd [1]: 0.207 nM
Kd [2]: 0.247 nM
B1: murine antibody 1D9 reported in WO 03/080675 (ECACC deposit 03032101) (antibody, from another filing, V domains shown)
VH: EVKLVESGGGLVKPGGSLKLSCAASGFTFSGYGMSWVRQTPEKRLEWVATISGLGGYTYYPDSVKGRFTISRDNAKNTLYLQMSSLRSDDTAFYYCARRFYGDYVGAMDYWGQGTSVTVSS
VL: DILMTQAAFSNPVTLGTSASISCRSSKSLLHSNGITYLYWYLQKPGQSPQLLIYQMSNLASGVPDRFSCSGSGTDFTLSISRVEAEDVGFYYCAQNLELPFTFGSGTKLEIE
